Reference: patent publication US20260007750A1

B1: Pak2 kinase (protein)
chain: SDNGELEDKPPAPPVRMSSTIFSTGGKDPLSANHSLKPLPSVPEEKKPRHKIISIFSGTEKGSKKKEKERPEISPPSDFEHTIHVGFDAVTGEFTGMPEQWARLLQTSNITKLEQKKNPQAVLDVLKFYDSNTVKQKYLSFTPPEKDGFPSGTPALNAKGTEAPAVVTEEEDDDEETAPPVIAPRPDHTKSIYTRSVIDPVPAPVGDSHVDGAAKSLDKQKKKTKMTDEEIMEKLRTIVSIGDPKKKYTRYEKIGQGASGTVFTATDVALGQEVAIKQINLQKQPKKELIINEILVMKELKNPNIVNFLDSYLVGDELFVVMEYLAGGSLTDVVTETCMDEAQIAAVCRECLQALEFLHANQVIHRDIKSDNVLLGMEGSVKLTDFGFCAQITPEQSKRSTMVGTPYWMAPEVVTRKAYGPKVDIWSLGIMAIEMVEGEPPYLNENPLRALYLIATNGTPELQNPEKLSPIFRDFLNRCLEMDVEKRGSAKELLQHPFLKLAKPLSSLTPLIMAAKEAMKSNR

Tests used:
[1] = molecular target: Pak2 kinase (UniProt Q13177); test: cell-based or functional assay
[2] = molecular target: HIV-1 Nef protein (wild-type, HIV-1 Clade B)
[3] = molecular target: NefD123G (Nef variant)
[4] = molecular target: NefWP (Nef variant)

Molecule | phosphorylation of Pak2 at S55, quantitative phosphoproteomics of CAR T cells stimulated by NALM6 cells (Nef-WT compared to NefAxxA) (log2 fold change) [1] | phosphorylation of Pak2 at S152, quantitative phosphoproteomics of CAR T cells stimulated by NALM6 cells (Nef-WT compared to NefAxxA) (log2 fold change) [1] | Pak2 phosphorylation by gel electrophoresis / Western blot [2] | Pak2 phosphorylation by gel electrophoresis / Western blot [3] | Pak2 phosphorylation by gel electrophoresis / Western blot [4]
HIV-1 Nef protein (wild-type, HIV-1 Clade B) | 2.15 | 1.17 | – | – | –
B1 | – | – | Nef variants that promote CAR T cell activity in vivo (Nef WT, NefWP and NefD123G) but not NefAxxA expressing CARs also promoted Pak2 phosphorylation | Nef variants that promote CAR T cell activity in vivo (Nef WT, NefWP and NefD123G) but not NefAxxA expressing CARs also promoted Pak2 phosphorylation | Nef variants that promote CAR T cell activity in vivo (Nef WT, NefWP and NefD123G) but not NefAxxA expressing CARs also promoted Pak2 phosphorylation
